In assay [1] the target is T1, PR4: H-(PR)4HHHHHH-NH2.
T1 peptide: H-PRPRPRPRHHHHHH-NH2
Description: indirect ELISA, His-tagged peptide coated at 50 ug/ml, antibody titrated [also D00027 FIG. 7O]. As for the experimental part:
(§1) 96-well microplates (Corning Incorporated, Corning, USA) were coated with dipeptide repeat protein peptides at a concentration of 50 μg/ml in coating buffer (15 mM Na₂CO₃, 35 mM NaHCO₃, pH 9.42). Non-specific binding sites were blocked for 1 h at room temperature with PBS/0.1% Tween®-20 containing 2% BSA (Sigma-Aldrich, Buchs, Switzerland). Primary antibodies were diluted to the indicated concentrations and incubated 1 h at room temperature, followed by incubation with a donkey anti-human IgG Fcγ-specific antibody conjugated with HRP (Jackson ImmunoResearch Laboratories, Inc., West Grove, USA). Binding was determined by measurement of HRP activity in a standard colorimetric assay. EC₅₀ values were estimated by non-linear regression using GraphPad Prism software (San Diego, USA).
(§2) High affinity binding was detected for poly-GA DPRs harboring 10 or 20 (GA)-repeats, reflected in an EC₅₀ in the subnanomolar or low nanomolar range (FIGS. 7A, 7C-7I).

Assay [2] has as its target T2, PR3: H-(PR)3HHHHHH-NH2.
T2 peptide: H-PRPRPRHHHHHH-NH2
The description is as above. As for the experimental part: as §1, §2

Assay [3] concerns the target T3, PR2: H-(PR)2HHHHHH-NH2.
T3 peptide: H-PRPRHHHHHH-NH2
The assay is described as above. As for the experimental part:
as §1, §2

Assay [4] concerns the target T4, PR5: H-(PR)5HHHHHH-NH2.
T4 peptide: H-PRPRPRPRPRHHHHHH-NH2
Described as above. As for the experimental part: as §1, §2

Assay [5] concerns the target T5, GP4: H-(GP)4HHHHHH-NH2.
T5 peptide: H-GPGPGPGPHHHHHH-NH2
Description: indirect ELISA, His-tagged peptide coated at 50 ug/ml, antibody titrated [also D00026 FIG. 7J]. An excerpt: (§3) In brief, dipeptide repeat proteins were synthesized and purified by Schafer-N (Copenhagen, Denmark): GA₂₀: H-(GA)₂₀HHHHHH-NH₂; GA₁₀: H-(GA)₁₀HHHHHH-NH₂; GA₆: H-(GA)₆HHHHHH-NH₂; GA₅: H-(GA)₅HHHHHH-NH₂; GA₄: H-(GA)₄HHHHHH-NH₂; GA₃: H-(GA)₃HHHHHH-NH₂; GA₂: H-(GA)₂HHHHHH-NH₂; GP₂₀: H-(GP)₂₀HHHHHH-NH₂; GP₁₀: H-(GP)₁₀HHHHHH-NH₂; GP₆: H-(GP)₆HHHHHH-NH₂; GP₅: H-(GP)₅HHHHHH-NH₂; GP₄: H-(GP)₄HHHHHH-NH₂; GP₃: H-(GP)₃HHHHHH-NH₂; GP₂: H-(GP)₂HHHHHH-NH₂. GR₂₀: H-(GR)₂₀HHHHHH-NH₂; GR₁₀: H-(GR)₁₀HHHHHH-NH₂; GR₆: H-(GR)₆HHHHHH-NH₂; GR₅: H-(GR)₅HHHHHH-NH₂; GR₄: H-(GR)₄HHHHHH-NH₂; GR₃: H-(GR)₃HHHHHH-NH₂; GR₂: H-(GR)₂HHHHHH-NH₂; PA₂₀: H-(PA)₂₀HHHHHH-NH₂; PA₁₀: H-(PA)₁₀HHHHHH-NH₂; PA₆: H-(PA)₆HHHHHH-NH₂; PA₅: H-(PA)₅HHHHHH-NH₂; PA₄: H-(PA)₄HHHHHH-NH₂; PA₃: H-(PA)₃HHHHHH-NH₂; PA₂: H-(PA)₂HHHHHH-NH₂; PR₂₀: H-(PR)₂₀HHHHHH-NH₂; PR₁₀: H-(PR)₁₀HHHHHH-NH₂; PR₆: H-(PR)₆HHHHHH-NH₂; PR₅: H-(PR)₅HHHHHH-NH₂; PR₄: H-(PR)₄HHHHHH-NH₂; PR₃: H-(PR)₃HHHHHH-NH₂; PR₂: H-(PR)₂HHHHHH-NH₂. 96-well microplates (Corning Incorporated, Corning, USA) were coated with dipeptide repeat protein peptides at a concentration of 50 μg/ml in coating buffer (15 mM Na₂CO₃, 35 mM NaHCO₃, pH 9.42). Non-specific binding sites were blocked for 1 h at room temperature with PBS/0.1% Tween®-20 containing 2% BSA (Sigma-Aldrich, Buchs, Switzerland). Primary antibodies were diluted to the indicated concentrations and incubated 1 h at room temperature, followed by incubation with a donkey anti-human IgG Fcγ-specific antibody conjugated with HRP (Jackson ImmunoResearch Laboratories, Inc., West Grove, USA). Binding was determined by measurement of HRP activity in a standard colorimetric assay. EC₅₀ values were estimated by non-linear regression using GraphPad Prism software (San Diego, USA).

For assay [6], the target named is T6, GA2: H-(GA)2HHHHHH-NH2.
T6 peptide: H-GAGAHHHHHH-NH2
The assay is described as follows: indirect ELISA, His-tagged peptide coated at 50 ug/ml, antibody titrated [also D00027 FIG. 7M].
Text: as §3
(In general: In an ELISA, binding on a coated surface is turned into a signal by an enzyme label.)

The target of assay [7] is T7, GA5: H-(GA)5HHHHHH-NH2.
T7 peptide: H-GAGAGAGAGAHHHHHH-NH2
The description is as above.
Text: as §3

Assay [8] deals with T8, GA3: H-(GA)3HHHHHH-NH2.
T8 peptide: H-GAGAGAHHHHHH-NH2
Described as above.
Text: as §3

In assay [9] the target is T9, GA4: H-(GA)4HHHHHH-NH2.
T9 peptide: H-GAGAGAGAHHHHHH-NH2
The description is as above.
Text: as §3

Assay [10] addresses T6, GA2: H-(GA)2HHHHHH-NH2. The assay is described as follows: indirect ELISA, His-tagged peptide coated at 50 ug/ml, antibody titrated [also D00025 FIG. 7H]. As for the experimental part:
as §1, §2

Assay [11] addresses T8, GA3: H-(GA)3HHHHHH-NH2. The description is as above. As for the experimental part:
as §1, §2

In assay [12] the target is T9, GA4: H-(GA)4HHHHHH-NH2. The description is as above. As for the experimental part:
as §1, §2

B1: NI-308.24E11 (antibody, V domains shown)
VH: QVQLQESGPGLVKPSETLSLTCTVSTTSLRSYFWSWIRQPPGKGLEWIGYVYYSGSTIYNPSLKNRVTISIDTSKNQFSLNLRSVTAADTAMYFCARGVPAETDARDFPPYYFDHWGQGTLVTVSS
VL: CDIQLTQSPSSLSASVGNRITFTCQASQDIRYYLNWYQQKPGKAPKLLIYDVSNLDTGVPPRFSGSGSGTNFTFTISSLQPEDIAVYYCQQYEGLPVTFGGGTKVEIK
notes: Recombinant complete human IgG1, kappa
On to B1, for which the binding result in assay [1], in assay [2], in assay [3] and in assay [4] was “no binding (tested: about 4x10^5 pM (last point))” in each case.

B2: NI-308.5G2 (antibody, V domains shown)
VH: EVQLVQSGADLRNPGASVTVSCTASGYHFADNAINWLRQAPGQRLEWMGWINIYSGNTKYSQNFQGRVTFTRNTSASTAFMHLRSLRSEDTAVYFCARDPDSSGYYLPYFDYWGQGTLVTVSS
VL: DIQLTQSPDSLTLSLGERATINCKSSQSVFYNSNNKNYLAWYQQKPGQPPKLLMYWASTRESGVTDRFSGSGSGTDFTLTITNLQAEDVAVYYCQQFYSSPLTFGGGTKVEIK
notes: as for B1
As for B2, in assay [5], the binding result is reported as “no binding (tested: about 4x10^5 pM (last point))”.

B3: NI-308.6B11 (antibody, V domains shown)
VH: EVQLVQSGAEVKRPGASVKVSCKVSGYTLTELSMHWVRQAPGKGLEWMGGFDPEDGETVYAQKFQGRVTMTEDTSTDTAYMELSSLRSEDTALYHCATYGSSWHWNEGNEGSYYFDYWGQGTLVTVSS
VL: CDIQMTQSPSSLSASVGDRVTITCQASQDISIYLNWYQQKPGKAPKLLIYDASNLETGVPSRFSGSGSGTDFTFTISGLQPEDVARYYCQQYDDLPITFGQGTRLEIK
notes: as for B1
For the molecule B3, the binding result in assay [6], in assay [7], in assay [8] and in assay [9] was “no binding (tested: about 4x10^5 pM (last point))” each time.

B4: NI-308.28G1 (antibody, V domains shown)
VH: QVQLQESGPRLVKPSETLSLTCTVAGGSVNSYYWTWIQQSPGKGLEWLGRIYIAGRTNYNPSLTSRIALSVDTSRNQLSLKLTSVTAADTAIYYCARWGAESGDYYYGVDVWGPGTLVTVSS
VL: EIVMTQSPLSLPVTPGEPASISCKSSEGLLHSNGYTYLDWYLQKPGQAPQLLIFLASNRAAGVPDRFSGSGSGTDFTLKISRVEAEDVGVYYCMQAIQSPWTFGPGTKVEIK
notes: as for B1
As for B4, the binding result in [10], in assay [11] and in assay [12] was “no binding (tested: about 4x10^5 pM (last point))” each time.

The values are drawn from patent US20200010567A1 (NEURIMMUNE, published 2020).
